These results are taken from patent publication US20200057047.

In this data set the test system is HA-tagged AhR.

Sequence of Myc-tagged PKCθ (Q04759 whole entry): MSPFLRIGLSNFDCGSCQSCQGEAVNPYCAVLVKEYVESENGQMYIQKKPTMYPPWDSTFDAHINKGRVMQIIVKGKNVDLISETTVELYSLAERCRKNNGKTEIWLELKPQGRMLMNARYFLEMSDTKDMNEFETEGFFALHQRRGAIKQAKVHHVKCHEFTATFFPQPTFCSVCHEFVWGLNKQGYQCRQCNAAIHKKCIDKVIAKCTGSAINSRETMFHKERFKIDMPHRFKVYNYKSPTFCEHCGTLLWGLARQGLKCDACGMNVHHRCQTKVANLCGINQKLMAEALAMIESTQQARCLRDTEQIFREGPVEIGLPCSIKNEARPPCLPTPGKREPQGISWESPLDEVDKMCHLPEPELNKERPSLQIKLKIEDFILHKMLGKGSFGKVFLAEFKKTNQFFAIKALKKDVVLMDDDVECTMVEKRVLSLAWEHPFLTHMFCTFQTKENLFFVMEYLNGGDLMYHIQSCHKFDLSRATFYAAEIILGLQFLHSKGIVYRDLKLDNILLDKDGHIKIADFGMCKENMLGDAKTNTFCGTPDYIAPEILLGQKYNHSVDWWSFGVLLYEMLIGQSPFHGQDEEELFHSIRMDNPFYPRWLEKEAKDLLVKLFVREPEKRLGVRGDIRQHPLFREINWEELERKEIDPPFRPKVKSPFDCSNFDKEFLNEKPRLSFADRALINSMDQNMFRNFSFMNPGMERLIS

Take Myc-tagged PKCθ: the “in vitro kinase assay: AhR Ser-36 phosphorylation” value is “purified PKCθ indeed phosphorylated AhR at Ser-36”.

On to “Myc-tagged PKCθ kinase-dead (K409W) mutant”, for which the “in vitro kinase assay: AhR Ser-36 phosphorylation” value is “purified kinase-dead (K409W) mutant of PKCθ did not”.
